Tests used:
Assay in all cases: FRET or BRET
III3(D838G)-FRET = target: III3(D838G)-FRET
III3(V798D)-FRET = target: III3(V798D)-FRET
III3(V834D)-FRET = target: III3(V834D)-FRET
[1] = target: III3-FRET (III3 flanked by mYPet and mECFP*)

For anastellin (domain or fragment), the FRET efficiency of the construct with anastellin (0.18 without) (III3(D838G)-FRET) was 0.27, the Kd (III3(D838G)-FRET) was 490 nM and the half time of binding (III3(D838G)-FRET) was 60 s. For the same substance, the FRET efficiency of the construct with anastellin (0.21 without) (III3(V798D)-FRET) was 0.28, the Kd (III3(V798D)-FRET) was 180 nM and the half time of binding (III3(V798D)-FRET) was less than 1 s. For the same substance, the FRET efficiency of the construct with anastellin (0.21 without) (III3(V834D)-FRET) was 0.27, the Kd (III3(V834D)-FRET) was less than 50 nM and the half time of binding (III3(V834D)-FRET) was less than 1 s. For the same substance, the FRET efficiency of the construct with anastellin (0.19 without) [1] was 0.28, the Kd [1] was 210 nM and the first order rate constant of binding [1] was 0.02 s⁻¹. The half time of binding [1] was 30 s.
